The text below walks through data of patent EP1906184A1 (KYOWA HAKKO KOGYO CO., LTD., dated 2008).

B1: anti-human VEGF receptor Flt-1 mouse monoclonal antibody KM1750 (antibody, V domains shown)
VH: QAFLQQSGAELVRPGASVKMSCKASGYTFINYNMHWVKQTPRQGLEWIGAIFPGNGFTSYNQKFKGKATLTVDKSSSTVYMQLRSLTSEDSAVYFCARDGDYYFDYWGQGTTLTVSS
VL: QIVLTQSPAIMSASLGEEITLTCSASSSVSYMHWYQQKSGTSPKLLIYRTSNLASGVPFRFSGSGSGTFYSLTISSVEAEDAADYYCHQWSMYTFGGGTKLEIK
notes: Mouse IgG2b from hybridoma KM1750 (FERM BP-5700)
B2: anti-human VEGF receptor Flt-1 mouse monoclonal antibody KM1732 (antibody, V domains shown)
VH: QGQMQQSGAELVKPGASVKLSCKPSGFTFSSNYISWLKQKPGQSLEWIAWIYAGTGDASYNQKFTAKAHVTVDTSSSTAYMQLSSLTTEDSAIYYCARHGGDGYWFAYWGQGTLVTVSA
VL: QLVLTQSPAIMSASQGEKVTMTCSASSSVSYMHWYQQKSGTSPKRWIYDTSKLPSGVPARFSGSGSGTSYSLTISSMEAEDAATYYCQQWSSNPPTFGAGTKLELK
notes: Mouse IgG1 from hybridoma KM1732 (FERM BP-5698); also called anti-human Flt-1 monoclonal antibody KM1732
B3: anti-human VEGF receptor Flt-1 human chimeric antibody KM2550 (antibody, V domains shown)
VH: B1 VH
VL: B1 VL
B4: anti-human VEGF receptor Flt-1 human chimeric antibody KM2532 (antibody, V domains shown)
VH: B2 VH
VL: B2 VL
B5: anti-human VEGF receptor Flt-1 human CDR-grafted antibody KM8550 (antibody, V domains shown)
VH: QVQLVQSGAEVKKPGASVKVSCKASGYTFINYNMHWVRQAPGQGLEWMGAIFPGNGFTSYNQKFKGRVTITVDKSTSTAYMELSSLRSEDTAVYYCARDGDYYFDYWGQGTLVTVSS
VL: DIQMTQSPSSLSASVGDRVTITCSASSSVSYMHWYQQKPGKAPKLLIYRTSNLASGVPSRFSGSGSGTDFTLTISSLQPEDFATYYCHQWSMYTFGQGTKVEIK
notes: Human CDR-grafted IgG; also called 1750HV0 + 1750LV0(I); pKANTEX1750HV0LV0(I)
B6: anti-human VEGF receptor Flt-1 human CDR-grafted antibody KM8551 (antibody, V domains shown)
VH: B5 VH
VL: DIVMTQSPDSLAVSLGERATINCSASSSVSYMHWYQQKPGQPPKLLIYRTSNLASGVPDRFSGSGSGTDFTLTISSLQAEDVAVYYCHQWSMYTFGQGTKVEIK
notes: Human CDR-grafted IgG; also called 1750HV0 + 1750LV0(IV); pKANTEX1750HV0LV0(IV)
B7: anti-human VEGF receptor Flt-1 human CDR-grafted antibody KM8555 (antibody, V domains shown)
VH: B5 VH with E82Q, S84R, Y95F
VL: B5 VL with D17E, R18E, D69F, F70Y
notes: Human CDR-grafted IgG with modified FR in VH and VL; also called 1750HV3 + 1750LV4; pKANTEX1750HV3LV4
B8: anti-human VEGF receptor Flt-1 human CDR-grafted antibody KM8553 (antibody, V domains shown)
VH: B5 VH with E82Q, S84R, Y95F
VL: B6 VL
notes: Human CDR-grafted IgG with modified FR in VH; also called 1750HV3 + 1750LV0(IV); pKANTEX1750HV3LV0(IV)
B9: anti-human VEGF receptor Flt-1 human CDR-grafted antibody KM8554 (antibody, V domains shown)
VH: B5 VH
VL: B5 VL with D17E, R18E, D69F, F70Y
notes: Human CDR-grafted IgG with modified FR in VL; also called 1750HV0 + 1750LV4; pKANTEX1750HV0LV4
B10: anti-human VEGF receptor Flt-1 human CDR-grafted antibody KM8552 (antibody, V domains shown)
VH: B5 VH with E82Q, S84R, Y95F
VL: B5 VL
notes: Human CDR-grafted IgG with modified FR in VH; also called 1750HV3 + 1750LV0(I); pKANTEX1750HV3LV0(I)

Changes are numbered by the printed parent chain.

T1 sequence (P35968 20-757): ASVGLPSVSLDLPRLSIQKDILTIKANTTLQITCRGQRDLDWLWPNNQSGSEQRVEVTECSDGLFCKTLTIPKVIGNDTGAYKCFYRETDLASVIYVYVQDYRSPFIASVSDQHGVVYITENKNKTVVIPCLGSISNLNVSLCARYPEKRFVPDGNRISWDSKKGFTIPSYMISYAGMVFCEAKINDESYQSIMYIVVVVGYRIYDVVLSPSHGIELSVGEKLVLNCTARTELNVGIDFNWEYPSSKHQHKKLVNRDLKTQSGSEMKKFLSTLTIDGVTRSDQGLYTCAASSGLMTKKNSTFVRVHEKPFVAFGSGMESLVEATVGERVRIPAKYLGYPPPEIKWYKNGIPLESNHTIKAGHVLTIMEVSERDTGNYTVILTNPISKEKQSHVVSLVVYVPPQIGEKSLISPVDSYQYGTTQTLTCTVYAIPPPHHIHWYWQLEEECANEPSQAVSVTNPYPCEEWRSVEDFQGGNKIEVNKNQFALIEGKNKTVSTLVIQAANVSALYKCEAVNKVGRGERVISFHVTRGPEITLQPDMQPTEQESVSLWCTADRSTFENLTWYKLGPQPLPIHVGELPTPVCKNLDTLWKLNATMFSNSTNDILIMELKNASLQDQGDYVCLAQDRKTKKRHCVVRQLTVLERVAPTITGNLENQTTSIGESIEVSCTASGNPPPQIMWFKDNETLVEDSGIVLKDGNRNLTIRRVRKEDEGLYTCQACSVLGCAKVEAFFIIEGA

One assay addresses T1, soluble human VEGF receptor KDR 7N (human, UniProt P35968 20-757).
T1 construct: range 1-738; The range 1-738 counts on the mature protein, not on the precursor; Expressed in High Five insect cells (purity 70 to 80%); not shown: two amino acid residues derived from a linker
Briefly: ELISA, receptor coated at 4 µg/ml. A general note: An ELISA detects its analyte on a solid surface through an enzyme-linked reagent.
With B1, the binding result was “no binding (tested: 0.1 µg/ml)”.

On to B2, for which the binding result is on record as “no binding (tested: 0.1 µg/ml)”.

The target of another assay is T1, soluble human VEGF receptor KDR 7N. Briefly: ELISA, receptor coated at 4 µg/ml, antibody concentration varied.
On to B3, for which the binding result is listed as “no binding (tested: 0.0152 to 100 ng/ml)”.

As for B4, the binding result was “no binding (tested: 0.0152 to 100 ng/ml)”.

The target is the same in the next assay. Kind of assay: ELISA, receptor coated at 10 µg/ml (3-fold dilutions).
For the molecule B5, the binding result is on record as “no binding (tested: 5 µg/ml)”.

Consider B6, for which the binding result was “no binding (tested: 5 µg/ml)”.

Regarding B7, the binding result is given as “no binding (tested: 5 µg/ml)”.

With B8, the binding result is “no binding (tested: 5 µg/ml)”.

Regarding B9, the binding result is listed as “no binding (tested: 5 µg/ml)”.

As for B10, the binding result was “no binding (tested: 5 µg/ml)”.
